According to patent US20240182536A1 (MURAL ONCOLOGY, published 2024):

T1: IL-18 binding protein (IL-18BP) (UniProt O95998 31-194)
T1 sequence (looked up): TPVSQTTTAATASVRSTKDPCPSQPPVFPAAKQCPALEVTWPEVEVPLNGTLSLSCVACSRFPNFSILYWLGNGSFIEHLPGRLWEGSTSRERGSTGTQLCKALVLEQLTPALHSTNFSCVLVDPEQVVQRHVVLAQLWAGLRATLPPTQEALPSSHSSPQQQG

T2: IL-18 receptors on HEK-Blue IL-18 reporter cells (UniProt Q13478 19-541; O95256 20-599, limits assumed)
T2 sequence (looked up) 1: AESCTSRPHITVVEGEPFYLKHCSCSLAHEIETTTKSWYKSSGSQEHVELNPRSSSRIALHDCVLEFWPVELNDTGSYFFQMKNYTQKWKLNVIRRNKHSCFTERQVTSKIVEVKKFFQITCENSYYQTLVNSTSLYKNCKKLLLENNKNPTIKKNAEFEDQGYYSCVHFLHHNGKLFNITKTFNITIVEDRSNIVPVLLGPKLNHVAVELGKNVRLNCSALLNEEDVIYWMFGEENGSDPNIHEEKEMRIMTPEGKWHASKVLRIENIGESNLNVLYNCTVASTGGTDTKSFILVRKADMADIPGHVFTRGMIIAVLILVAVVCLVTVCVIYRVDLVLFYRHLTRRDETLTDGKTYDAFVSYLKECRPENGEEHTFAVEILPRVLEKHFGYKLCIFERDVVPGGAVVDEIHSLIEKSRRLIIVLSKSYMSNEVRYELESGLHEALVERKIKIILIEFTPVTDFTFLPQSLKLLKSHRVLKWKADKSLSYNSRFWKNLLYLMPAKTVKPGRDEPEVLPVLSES
T2 sequence (looked up) 2: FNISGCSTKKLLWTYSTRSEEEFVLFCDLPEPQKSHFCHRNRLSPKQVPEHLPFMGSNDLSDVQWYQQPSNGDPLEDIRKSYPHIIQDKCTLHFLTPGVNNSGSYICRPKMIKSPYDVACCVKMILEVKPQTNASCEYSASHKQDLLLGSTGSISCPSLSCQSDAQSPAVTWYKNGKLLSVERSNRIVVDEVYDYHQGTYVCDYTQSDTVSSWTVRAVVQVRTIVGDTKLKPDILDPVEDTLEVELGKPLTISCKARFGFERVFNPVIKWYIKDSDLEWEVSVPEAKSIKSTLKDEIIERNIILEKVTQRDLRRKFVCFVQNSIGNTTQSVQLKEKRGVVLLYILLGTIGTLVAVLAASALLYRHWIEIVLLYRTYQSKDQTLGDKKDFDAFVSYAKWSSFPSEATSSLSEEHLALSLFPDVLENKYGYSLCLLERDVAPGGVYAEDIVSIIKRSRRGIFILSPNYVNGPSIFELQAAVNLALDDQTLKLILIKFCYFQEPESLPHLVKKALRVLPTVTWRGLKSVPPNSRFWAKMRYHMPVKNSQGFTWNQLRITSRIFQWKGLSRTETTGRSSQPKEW


Key:
[1] = target: T1, IL-18 binding protein (IL-18BP); test: cell-based or functional assay
[2] = target: T2, IL-18 receptors on HEK-Blue IL-18 …; test: cell-based or functional assay

Row | Binder | Activity, +100 nM BP, DF-1000002 [1] | Activity, +100 nM BP, DF-5000003 [1] | Activity, +100 nM BP, DF-25000004 [1] | Ratio (-BP/+BP), DF-1000005 [1] | Ratio (-BP/+BP), DF-5000006 [1] | Ratio (-BP/+BP), DF-25000007 [1] | Activity, No BP, DF-100000 [2] | Activity, No BP, DF-500000 [2] | Activity, No BP, DF-2500000 [2]
1 | IL-18 variant E6G, D54A, S55K, T63S, N91K, Q114R (ligand) YFGKLGSKLSVIRNLNDQVLFIDQGNRPLFEDMTDSDMRDNAPRTIFIISMYKAKQPRGMAVSISVKSEKISTLSSENKIISFKEMNPPDKIKDTKSDIIFFQRSVPGHDNKMRFESSSYEGYFLASEKERDLFKLILKKEDELGDRSIMFTVQNED | 1.89 | 1.33 | 0.49 | 1.17 | 1.54 | 3.3 | 2.2 | 2.05 | 1.61
2 | IL-18 variant E6D, D54T, S55W, T63S, N91S, R104T (ligand) YFGKLDSKLSVIRNLNDQVLFIDQGNRPLFEDMTDSDMRDNAPRTIFIISMYKTWQPRGMAVSISVKSEKISTLSSENKIISFKEMNPPDSIKDTKSDIIFFQTSVPGHDNKMQFESSSYEGYFLASEKERDLFKLILKKEDELGDRSIMFTVQNED | 0.37 | 0.15 | 0.1 | 3.41 | 3.62 | 1.93 | 1.27 | 0.55 | 0.18
3 | IL-18 variant N91S, R104H (ligand) YFGKLESKLSVIRNLNDQVLFIDQGNRPLFEDMTDSDMRDNAPRTIFIISMYKDSQPRGMAVTISVKSEKISTLSSENKIISFKEMNPPDSIKDTKSDIIFFQHSVPGHDNKMQFESSSYEGYFLASEKERDLFKLILKKEDELGDRSIMFTVQNED | 0.09 | 0.08 | 0.11 | 14.7 | 7.35 | 1.72 | 1.34 | 0.61 | 0.19
4 | IL-18 variant G3Q, E6D, K53S, D54I, S55E, T63S, N91S, R104Q (ligand) YFQKLDSKLSVIRNLNDQVLFIDQGNRPLFEDMTDSDMRDNAPRTIFIISMYSIEQPRGMAVSISVKSEKISTLSSENKIISFKEMNPPDSIKDTKSDIIFFQQSVPGHDNKMQFESSSYEGYFLASEKERDLFKLILKKEDELGDRSIMFTVQNED | 0.12 | 0.09 | 0.11 | 0.73 | 0.8 | 0.68 | 0.09 | 0.07 | 0.07
5 | IL-18 variant G3L, E6Q, D54Y, S55P, T63S, N91S, R104Q (ligand) YFLKLQSKLSVIRNLNDQVLFIDQGNRPLFEDMTDSDMRDNAPRTIFIISMYKYPQPRGMAVSISVKSEKISTLSSENKIISFKEMNPPDSIKDTKSDIIFFQQSVPGHDNKMQFESSSYEGYFLASEKERDLFKLILKKEDELGDRSIMFTVQNED | 0.75 | 0.19 | 0.1 | 2.23 | 4.67 | 3.8 | 1.66 | 0.9 | 0.37
6 | IL-18 variant G3H, E6Q, K53N, D54S, S55P, T63A, N91I, R104S (ligand) YFHKLQSKLSVIRNLNDQVLFIDQGNRPLFEDMTDSDMRDNAPRTIFIISMYNSPQPRGMAVAISVKSEKISTLSSENKIISFKEMNPPDIIKDTKSDIIFFQSSVPGHDNKMQFESSSYEGYFLASEKERDLFKLILKKEDELGDRSIMFTVQNED | 0.21 | 0.12 | 0.08 | 0.86 | 0.78 | 0.91 | 0.18 | 0.09 | 0.07
7 | IL-18 variant G3V, E6Q, T34P, D54M, S55F, N91R, R104H (ligand) YFVKLQSKLSVIRNLNDQVLFIDQGNRPLFEDMPDSDMRDNAPRTIFIISMYKMFQPRGMAVTISVKSEKISTLSSENKIISFKEMNPPDRIKDTKSDIIFFQHSVPGHDNKMQFESSSYEGYFLASEKERDLFKLILKKEDELGDRSIMFTVQNED | 0.14 | 0.08 | 0.08 | 6.88 | 4.95 | 1.77 | 0.97 | 0.41 | 0.13
8 | IL-18 variant G3L, E6N, I22M, T63V, N91T, R104P (ligand) YFLKLNSKLSVIRNLNDQVLFMDQGNRPLFEDMTDSDMRDNAPRTIFIISMYKDSQPRGMAVVISVKSEKISTLSSENKIISFKEMNPPDTIKDTKSDIIFFQPSVPGHDNKMQFESSSYEGYFLASEKERDLFKLILKKEDELGDRSIMFTVQNED | 0.09 | 0.09 | 0.07 | 0.8 | 0.82 | 0.97 | 0.08 | 0.07 | 0.07
9 | IL-18 variant K53T, D54H, S55V, T63A, N91K (ligand) YFGKLESKLSVIRNLNDQVLFIDQGNRPLFEDMTDSDMRDNAPRTIFIISMYTHVQPRGMAVAISVKSEKISTLSSENKIISFKEMNPPDKIKDTKSDIIFFQRSVPGHDNKMQFESSSYEGYFLASEKERDLFKLILKKEDELGDRSIMFTVQNED | 0.23 | 0.1 | 0.07 | 1.18 | 1.24 | 1.58 | 0.28 | 0.12 | 0.12
10 | IL-18 variant G3S, E6Q, K53N, D54T, S55N, T63A, I80T, N91S (ligand) YFSKLQSKLSVIRNLNDQVLFIDQGNRPLFEDMTDSDMRDNAPRTIFIISMYNTNQPRGMAVAISVKSEKISTLSSENKTISFKEMNPPDSIKDTKSDIIFFQRSVPGHDNKMQFESSSYEGYFLASEKERDLFKLILKKEDELGDRSIMFTVQNED | 0.23 | 0.11 | 0.11 | 1.05 | 1.03 | 0.71 | 0.24 | 0.11 | 0.08
11 | IL-18 variant G3I, E6Q, N91M, R104Y (ligand) YFIKLQSKLSVIRNLNDQVLFIDQGNRPLFEDMTDSDMRDNAPRTIFIISMYKDSQPRGMAVTISVKSEKISTLSSENKIISFKEMNPPDMIKDTKSDIIFFQYSVPGHDNKMQFESSSYEGYFLASEKERDLFKLILKKEDELGDRSIMFTVQNED | 1.84 | 0.96 | 0.29 | 1.15 | 2.07 | 5.26 | 2.12 | 2 | 1.53
12 | IL-18 variant G3D, E6Q, R27S, K53R, D54A, S55R, T63S, N91Q (ligand) YFDKLQSKLSVIRNLNDQVLFIDQGNSPLFEDMTDSDMRDNAPRTIFIISMYRARQPRGMAVSISVKSEKISTLSSENKIISFKEMNPPDQIKDTKSDIIFFQRSVPGHDNKMQFESSSYEGYFLASEKERDLFKLILKKEDELGDRSIMFTVQNED | 0.52 | 0.15 | 0.09 | 1.95 | 2.81 | 1.5 | 1.02 | 0.41 | 0.13
